In data set [1] the test system is B3 three-finger zinc finger protein (Sp1C framework, designed) (synthetic). Briefly: EMSA. The conditions noted are these: Zn buffer (90 uM ZnCl2, 90 mM KCl, 1 mM MgCl2), 3 h room temperature.
Data set [2] deals with VP64-C7-ER (Zif268 variant C7 + mER LBD G525R) (synthetic) (UniProt P08046). As to the kind of experiment: cell_activity. The conditions noted are these: HeLa luciferase, 4-OHT-induced.
In data set [3] the target is VP64-C7-PR (Zif268 variant C7 + hPR LBD aa645-914) (synthetic) (UniProt P08046). Briefly: cell_activity. The following applies: HeLa luciferase, RU486-induced.
The target in a further data set is VP16-C7-PR (synthetic) (UniProt P08046). As to the kind of experiment: cell_activity. The following applies: RU486-induced, HeLa; no response to 4-OHT.
The target of the next data set is VP16-C7-ER (synthetic) (UniProt P08046). As to the kind of experiment: cell_activity. The following applies: 4-OHT-induced, HeLa; no response to RU486.
For data set [4], the system named is E2C-RE-VP64 (hRXRa + Drosophila EcR LBDs) (synthetic). As to the kind of experiment: cell_activity. The following applies: Ponasterone A-induced; significant basal activity.

Our source for the Kd and activity values is patent publication US7741110.

Turning to “GGAGGGGAC [B3 target site oligonucleotide]”, the Kd in data set [1] came out at 15 nM. With “GAGGGTACCGCGTGGGCGAAAAAGCGTGGGCGAGTCGACTCTAGAGGGTATATAATGG (double strand) [C7 direct repeat, 3 bp spacer, TATA reporter]”, the activity in data set [2] amounted to 9.5 fold; in data set [3], 3.9 fold. Consider “GCGTGGGCG (double strand) [10xC7-TATA-luc]”, for which the activity with VP16-C7-PR (synthetic) was found to be 26 fold; with VP16-C7-ER (synthetic) it was 43 fold. Regarding “GGGGCCGGAGCCGCAGTG (double strand) [E2C-TATA-luc single E2C site]”, in data set [4], the activity was found to be 3 fold.
